Laboratory results as given in patent US20180346555A1 (Regeneron, published 2018).
One block for each binder: values may come before it.

Tests used:
[1] = target: T1, natural Bet v 1 (Betula verrucosa (Betula pendula), UniProt P15494 2-160); test: SPR Biacore 4000, mAb captured on anti-human Fc, 25C;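 also: purified anti-Bet v 1 mAbs probed with natural Bet v 1 in HBS-ET buffer (HEPES, NaCl, EDTA, Tween-20) at pH 7.4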
T1 construct: Bought natural protein; also called nBet v 1
T1 chain: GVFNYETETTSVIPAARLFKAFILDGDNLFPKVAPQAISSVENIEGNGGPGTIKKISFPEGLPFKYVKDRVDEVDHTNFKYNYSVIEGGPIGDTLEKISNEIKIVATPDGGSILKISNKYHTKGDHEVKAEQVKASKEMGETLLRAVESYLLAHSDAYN
Method: (§1) Equilibrium dissociation constants (KD) for natural Bet v 1 binding to purified anti-Bet v 1 monoclonal antibodies were determined using a real-time surface plasmon resonance biosensor (SPR-Biacore) on a Biacore 4000 instrument. All binding studies were performed in 10 mM HEPES, 150 mM NaCl, 3 mM EDTA, and 0.05% v/v surfactant Tween-20, pH 7.4 (HBS-ET) running buffer at 25° C. and 37° C. […] Association (kₐ) and dissociation (kd) rate constants were determined by fitting the real-time binding sensorgrams to a 1:1 binding model with mass transport limitation using Scrubber 2.0c curve-fitting software. Binding dissociation equilibrium constants (KD) and dissociative half-lives (t½) were calculated from the kinetic rate constants as:

[2] = target: T1, natural Bet v 1; test: SPR Biacore 4000, mAb captured on anti-human Fc, 37C;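 also: kinetic rate constants from SPR sensorgrams fitted to a 1:1 model with mass transport limitation, HBS-ET buffer pH 7.4, KD and t½ derived from the rate constants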
Method: as §1

B1: H4H17015P (antibody, human IgG4, V domains shown)
VH: QVQLQESGPGLVKPSQTLSLTCTVSGGSISSADHYWSWIRQQPGKGLEWIGYISYRGTTYYNPTLESRVSISVDTFKNQFSLMLHSVTVADTAVYYCAKVLQGLVRFRDYGFDVWGQGTTVTVSS
VL: DIQLTQSPPFLSASVGDRVTITCWASQDISSYLAWYQQNPGKSPKLLIYDAFTLHTGVPSRFSGSGSGTEFTLTISSLQPEDFATFYCQHLYSFPFTFGPGTKVDIK
100 nM natural Bet v 1 Bound (RU) [1]: 68 RU | Kd [1]: 1.34 nM | koff [1]: 0.000246 s⁻¹ | kon [1]: 184000 M⁻¹ s⁻¹ | t½ [1]: 47 min | 100 nM natural Bet v 1 Bound (RU) [2]: 84 RU | Kd [2]: 2.7 nM | koff [2]: 0.000792 s⁻¹ | kon [2]: 293000 M⁻¹ s⁻¹ | t½ [2]: 15 min

B2: H4H16979P (antibody, human IgG4, V domains shown)
VH: QVQLVQSGAEVKKPGASVKVSCKASGYTFIAYYLHWVRQAPGQGLEWMGLLNPYTGGSYYTQKFQGRVTMTRDTSIDTAYMELNSLRSDDTAIYYCARDKRSYYIPYAFEIWGQGTMVTVSS
VL: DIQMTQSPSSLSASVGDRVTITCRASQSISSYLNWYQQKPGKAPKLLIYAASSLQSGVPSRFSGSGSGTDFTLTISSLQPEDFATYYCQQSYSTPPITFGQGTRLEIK
100 nM natural Bet v 1 Bound (RU) [1]: 41 RU | Kd [1]: 1.21 nM | koff [1]: 0.000278 s⁻¹ | kon [1]: 230000 M⁻¹ s⁻¹ | t½ [1]: 42 min | 100 nM natural Bet v 1 Bound (RU) [2]: 52 RU | Kd [2]: 1.8 nM | koff [2]: 0.000616 s⁻¹ | kon [2]: 342000 M⁻¹ s⁻¹ | t½ [2]: 19 min

B3: H4H16946P (antibody, human IgG4, V domains shown)
VH: EVQLVESGGGLVQPGGSLRLSCVASGFTFSNYDMNWVRQAPGEGLEWISYISYSDHNIYYIDSVKGRFTISRDNAKNSLYLQMNSLRAEDTAIYYCAREALASSSFDYWGQGTLVTVSS
VL: EIVMTQSPATLSVSPGERVTLSCRASQSVSGNLAWYQQKPGQAPRLLIYSASTGATGVPARFSGSGSGTEFTLTISSLQSEDFALYYCQQYNKWPRTIGQGTKVEIK
100 nM natural Bet v 1 Bound (RU) [1]: 74 RU | Kd [1]: 0.982 nM | koff [1]: 0.000201 s⁻¹ | kon [1]: 205000 M⁻¹ s⁻¹ | t½ [1]: 58 min | 100 nM natural Bet v 1 Bound (RU) [2]: 93 RU | Kd [2]: 2.08 nM | koff [2]: 0.000601 s⁻¹ | kon [2]: 289000 M⁻¹ s⁻¹ | t½ [2]: 19 min

B6: H4H16991P (antibody, human IgG4, V domains shown)
VH: QVQLVQSGAEVRKPGASVKVSCKASGYTFTGYYLHWVRQAPGQGLEWMGLINPNTGGTNFAQKFQGRVTMTRDSSISAAYMELSRLRSDDTAVYYCARQHWNRYFDNWGQGTLVTVSS
VL: DIQMTQSPSTLSASVGDRVTITCRASQSVGNWLAWYQQKPGKAPKLLIQEASSIESGVPSRFSGSGSGTEFTLIVSSLQPDDFATYYCQQYNSYSWTFGHGTKVEIK
100 nM natural Bet v 1 Bound (RU) [1]: 57 RU | Kd [1]: 1.06 nM | koff [1]: 0.000312 s⁻¹ | kon [1]: 295000 M⁻¹ s⁻¹ | t½ [1]: 37 min | 100 nM natural Bet v 1 Bound (RU) [2]: 66 RU | Kd [2]: 2.16 nM | koff [2]: 0.00108 s⁻¹ | kon [2]: 500000 M⁻¹ s⁻¹ | t½ [2]: 11 min

B9: H4H16960P (antibody, human IgG4, V domains shown)
VH: QLQLQESGPGLVRPSETLSLTCTVSGGSISSSNYWWGWIRQPPGKGLEWIGSIYYSGITYYNPSLKSRVTISADTSKDQFSLKLRSVTAADTAVYYCAKLEWLRLDFWGQGTTVTVSS
VL: DIQMTQSPSSVSASVGDRVTITCRASQGISSWLVWYQQKPGKVPKLLIYAASSLQSGVPLRFSGSGSGTDFTLTISSLQPEDFATYYCQQAKSFPLTFGQGTRLEIK
100 nM natural Bet v 1 Bound (RU) [1]: 57 RU | Kd [1]: 1.64 nM | koff [1]: 0.00069 s⁻¹ | kon [1]: 422000 M⁻¹ s⁻¹ | t½ [1]: 17 min | 100 nM natural Bet v 1 Bound (RU) [2]: 65 RU | Kd [2]: 2.54 nM | koff [2]: 0.00168 s⁻¹ | kon [2]: 662000 M⁻¹ s⁻¹ | t½ [2]: 6.8 min

B10: H4H17001P (antibody, human IgG4, V domains shown)
VH: QVQLVESGGGLVKPGGSLRLSCAASGFTFSDYYMNWIRQAPGKGLEWISLISSSGSAIYYSDSVKGRFTISRDNARKSLYLQVNSLRAEDTAVYYCARDRGEWALGAYYYGLDVWGQGTTVTVSS
VL: DIVMTQSPLSLPVTPGEPASISCRSSQSLLHSDGYNYLDWYLQKSGQSPQLLIYLGSNRASGVPDRFSGSGSGTDFTLKISRMEAEDVGVYYCMQALQTPYTFGQGTKLEIK
100 nM natural Bet v 1 Bound (RU) [1]: 71 RU | Kd [1]: 1 nM | koff [1]: 0.000329 s⁻¹ | kon [1]: 329000 M⁻¹ s⁻¹ | t½ [1]: 35 min | 100 nM natural Bet v 1 Bound (RU) [2]: 87 RU | Kd [2]: 2.52 nM | koff [2]: 0.00122 s⁻¹ | kon [2]: 485000 M⁻¹ s⁻¹ | t½ [2]: 9.5 min

More lines, in order of falling Kd [1], values ahead:

100 nM natural Bet v 1 Bound (RU) [1]: 58 RU | Kd [1]: 5.23 nM | koff [1]: 0.000503 s⁻¹ | kon [1]: 96100 M⁻¹ s⁻¹ | t½ [1]: 23 min | 100 nM natural Bet v 1 Bound (RU) [2]: 76 RU | Kd [2]: 8.57 nM | koff [2]: 0.00121 s⁻¹ | kon [2]: 141000 M⁻¹ s⁻¹ | t½ [2]: 10 min
B7: H4H16950P (antibody, human IgG4, V domains shown)
VH: QVQLVQSGAEVKKPGASVKVSCKTSGYTFTNYGITWVRQAPGQGLEWMGWISAYNGNTNYAQNVQGRVTMTTDTSTSTAYMEVRSLRSDDTAVYYCARRSSMLHFQHWGQGTLVTVSS
VL: DIVMTQSPDSLAVSLGERATINCKSSQHVLYDSSNENYLAWFQQKPGQPPKLLIYWASTRESGVPDRFSGSGSGTDFTLTISSLQAEDVAVYYCQQYSSAPYTFGQGTKLEIK

100 nM natural Bet v 1 Bound (RU) [1]: 27 RU | Kd [1]: 3.98 nM | koff [1]: 0.000149 s⁻¹ | kon [1]: 37600 M⁻¹ s⁻¹ | t½ [1]: 77 min | 100 nM natural Bet v 1 Bound (RU) [2]: 45 RU | Kd [2]: 14.3 nM | koff [2]: 0.000719 s⁻¹ | kon [2]: 50400 M⁻¹ s⁻¹ | t½ [2]: 16 min
B11: H4H16967P (antibody, human IgG4, V domains shown)
VH: QVQLVESGGGVVQPGRSLRLSCAASGFTFSSYGMHWFRQAPGKGLEWVGVIWSDGSDKKYADSVKGRFTISRDNSKNTLYLLMNSLRDDDTAVYHCAREGGFLYSSSSHFDYWGQGTLVTVSS
VL: AIQMTQSPSSLSASVGDRVTITCRTSQGIRNDLGWYQQKPGKAPKLLIFAASSLQSGVPSRFSGSGSGTDFTLTISSLQPEDFAIYYCLQDYKYPFTFGGGTKVEIK

100 nM natural Bet v 1 Bound (RU) [1]: 57 RU | Kd [1]: 3.26 nM | koff [1]: 0.000781 s⁻¹ | kon [1]: 240000 M⁻¹ s⁻¹ | t½ [1]: 15 min | 100 nM natural Bet v 1 Bound (RU) [2]: 66 RU | Kd [2]: 6.93 nM | koff [2]: 0.00244 s⁻¹ | kon [2]: 352000 M⁻¹ s⁻¹ | t½ [2]: 4.7 min
B5: H4H16971P (antibody, human IgG4, V domains shown)
VH: QVQLVESGGGVVQPGRSLRLSCAASGFTFSSYGLHWVRQAPGKGLEWVAVISDDGSYKFYADSMKGRFTISRDNSKNTLYLQMNSLRAEDTAVYYCAKDRGRSGWYYFDYWGQGTLVTVSS
VL: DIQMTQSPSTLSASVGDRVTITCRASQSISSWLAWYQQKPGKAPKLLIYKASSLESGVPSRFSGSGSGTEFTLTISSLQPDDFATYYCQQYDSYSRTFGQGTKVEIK

100 nM natural Bet v 1 Bound (RU) [1]: 61 RU | Kd [1]: 2.77 nM | koff [1]: 0.00114 s⁻¹ | kon [1]: 410000 M⁻¹ s⁻¹ | t½ [1]: 10 min | 100 nM natural Bet v 1 Bound (RU) [2]: 74 RU | Kd [2]: 9.16 nM | koff [2]: 0.00477 s⁻¹ | kon [2]: 520000 M⁻¹ s⁻¹ | t½ [2]: 2.4 min
B4: H4H16987P (antibody, human IgG4 S228P, kappa, V domains shown)
VH: EVQLVESGGGLVQPGGSLRLSCAASGFTVSSNSMSWVRQAPGEGLEWVSVIFSGGITYYSDSVKGRFTISRHNSKNTLYLQMNSLRTEDTAVYYCARHSNWNFDAFDIWGQGTMVTVSS
VL: DIQMTQSPSSLSASVGDRVTITCRASQSFDTYLNWYQQKPGKAPNLLIYATSSLQSGVPSRFSGSGSGTDFTLTISSLQPEDFGTYYCQQSYSIPYTFGQGTKLEIKR
notes: Human IgG4; also called MAB4

100 nM natural Bet v 1 Bound (RU) [1]: 71 RU | Kd [1]: 1.4 nM | koff [1]: 0.00023 s⁻¹ | kon [1]: 164000 M⁻¹ s⁻¹ | t½ [1]: 50 min | 100 nM natural Bet v 1 Bound (RU) [2]: 88 RU | Kd [2]: 4.89 nM | koff [2]: 0.00127 s⁻¹ | kon [2]: 260000 M⁻¹ s⁻¹ | t½ [2]: 9.1 min
B8: H4H16943P (antibody, human IgG4, V domains shown)
VH: EVQLVESGGGLVQPGGSLRLSCTASGFMSSMYWMSWVRQAPGKGLEWVSNIKQDGTEKNYVESVKGRFTISRDNAKNSLYLQINSLRGEDTAVYYCARDLYSSSSGYYYYGLDVWGQGTTVTVSS
VL: DIVMTQSPLSLPVTPGEPASISCRSSQSLLHSNKYNYLDWYLQKPGQSPQLLIYLSSNRASGVPDRFSGSGSGTEFTLKISRVEAEDVGIYYCMQALHTPLTFGGGTKVEIK
notes: Fully human antibody
